A value given as a limit tells only on which side of the number the result lay.

Experiment [1] has as its target TCR of the rat Vβ8.2+ T cell hybridoma C14/BW12-12A1 (A1), specific for Gp-BP-72-89 (rat). The experiment is described as follows: flow cytometry, A1 hybridoma with 10 µM complex 17 h at 4 C, detected with OX6-PE. Background: Flow cytometry measures light scatter and fluorescence of single cells or particles in a stream.
Experiment [2] shares this target. The experiment is described as follows: flow cytometry, direct binding study on A1 hybridoma.
The target in experiment [3] is TCRs of the MBP-69-89 specific short-term T cell line (Lewis rat) (rat). The experiment is described as follows: cell-based or functional assay.
Experiment [4] concerns the target TCR of the cardiac myosin CM-2-specific cell line (rat). In words: flow cytometry, CM-2 line (blocked with unconjugated OX6) with 10 µM complex 17 h at 4 C, detected with OX6-PE.
The target in experiment [5] is TCR of the rat Vβ8.2+ T cell hybridoma C14/BW12-12A1 (A1), specific for Gp-BP-72-89 (rat). The experiment is described as follows: flow cytometry, directly labelled complex on A1 hybridomas, 3 h at 4 C.

B1: β1α1/MBP-69-89 complex (rat RT1.B β1α1 construct loaded with MBP-69-89 peptide) (peptide-MHC)
chain: MGRDSPRDFVYQFKGLCYYTNGTQRIRDVIRYIYNQEEYLRYDSDVGEYRALTELGRPSAEYFNKQYLEQTRAELDTVCRHNYEGSEVRTSLRRLGGQDDIEADHVAAYGINMYQYYESRGQFTHEFDGDEEFYVDLDKKETIWRIPEFGQLTSFDPQGGLQNIAIIKHNLEILMKRSNSTQAVN
peptide: GSLPQKSQRSQDENPVVHF
With B1, the mean fluorescence intensity (MFI) in experiment [1] is 800 Units. For the same molecule, the fold increase in MFI over background in experiment [2] was found to be 10 fold. Besides, the inhibition of proliferation of the T cell line to MBP-69-89 + APC after pre-treatment with 10 nM complex in experiment [3] is over 90%.

B2: β1α1/MBP-55-69 complex (rat RT1.B β1α1 with Gp-MBP-55-69 peptide) (peptide-MHC)
chain: B1 chain
peptide: SGKDSHHAARTTHYG
Take B2: the inhibition of proliferation of the T cell line to MBP-69-89 + APC after pre-incubation with 20 µM complex in experiment [3] came to 27%.

B3: β1α1/CM-2 complex (rat RT1.B β1α1 construct loaded with cardiac myosin peptide CM-2) (peptide-MHC)
chain: B1 chain
peptide: KLELQSALEEAEASLEH
Turning to B3, the mean fluorescence intensity (MFI) in experiment [4] came to 1800 Units.

B4: A488-β1α1/MBP-69-89 (Alexa-488 conjugated rat β1α1 loaded with MBP-69-89) (peptide-MHC)
chain: B1 chain
peptide: GSLPQKSQRSQDENPVVHF
modifications: Alexa-488 dye conjugated, molar ratio dye/protein=1; site not stated
Regarding B4, in experiment [5], the MCI was found to be 300 Units.
